The values that follow come from patent US20240018502A1.

Substitutions are numbered along the chain they refer to. Names may count otherwise.

This test concerns the target plasma purified human complement protein C3 (human) (UniProt P01024). The experiment in a line: cell-based or functional assay.

Sequence of plasma purified human complement protein C3 (human) (P01024 23-667, chain 1 of 2): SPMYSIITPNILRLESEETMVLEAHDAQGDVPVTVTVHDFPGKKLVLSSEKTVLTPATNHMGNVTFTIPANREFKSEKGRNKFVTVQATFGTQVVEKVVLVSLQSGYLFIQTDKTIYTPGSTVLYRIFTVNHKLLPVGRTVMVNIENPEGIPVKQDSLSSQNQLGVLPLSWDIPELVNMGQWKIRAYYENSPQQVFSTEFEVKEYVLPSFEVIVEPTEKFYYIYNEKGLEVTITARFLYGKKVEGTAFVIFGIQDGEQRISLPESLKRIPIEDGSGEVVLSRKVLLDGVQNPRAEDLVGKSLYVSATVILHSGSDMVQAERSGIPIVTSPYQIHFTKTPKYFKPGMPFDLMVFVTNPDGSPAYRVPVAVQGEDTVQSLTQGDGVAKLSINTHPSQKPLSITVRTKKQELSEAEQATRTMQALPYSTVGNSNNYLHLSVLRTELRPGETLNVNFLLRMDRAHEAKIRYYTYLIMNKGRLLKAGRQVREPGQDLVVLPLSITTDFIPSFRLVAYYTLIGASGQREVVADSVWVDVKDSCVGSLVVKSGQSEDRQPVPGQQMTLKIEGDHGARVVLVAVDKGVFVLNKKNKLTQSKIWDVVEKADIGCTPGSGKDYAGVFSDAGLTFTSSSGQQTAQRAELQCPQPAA
Sequence of plasma purified human complement protein C3 (human) (P01024 672-1663, chain 2 of 2): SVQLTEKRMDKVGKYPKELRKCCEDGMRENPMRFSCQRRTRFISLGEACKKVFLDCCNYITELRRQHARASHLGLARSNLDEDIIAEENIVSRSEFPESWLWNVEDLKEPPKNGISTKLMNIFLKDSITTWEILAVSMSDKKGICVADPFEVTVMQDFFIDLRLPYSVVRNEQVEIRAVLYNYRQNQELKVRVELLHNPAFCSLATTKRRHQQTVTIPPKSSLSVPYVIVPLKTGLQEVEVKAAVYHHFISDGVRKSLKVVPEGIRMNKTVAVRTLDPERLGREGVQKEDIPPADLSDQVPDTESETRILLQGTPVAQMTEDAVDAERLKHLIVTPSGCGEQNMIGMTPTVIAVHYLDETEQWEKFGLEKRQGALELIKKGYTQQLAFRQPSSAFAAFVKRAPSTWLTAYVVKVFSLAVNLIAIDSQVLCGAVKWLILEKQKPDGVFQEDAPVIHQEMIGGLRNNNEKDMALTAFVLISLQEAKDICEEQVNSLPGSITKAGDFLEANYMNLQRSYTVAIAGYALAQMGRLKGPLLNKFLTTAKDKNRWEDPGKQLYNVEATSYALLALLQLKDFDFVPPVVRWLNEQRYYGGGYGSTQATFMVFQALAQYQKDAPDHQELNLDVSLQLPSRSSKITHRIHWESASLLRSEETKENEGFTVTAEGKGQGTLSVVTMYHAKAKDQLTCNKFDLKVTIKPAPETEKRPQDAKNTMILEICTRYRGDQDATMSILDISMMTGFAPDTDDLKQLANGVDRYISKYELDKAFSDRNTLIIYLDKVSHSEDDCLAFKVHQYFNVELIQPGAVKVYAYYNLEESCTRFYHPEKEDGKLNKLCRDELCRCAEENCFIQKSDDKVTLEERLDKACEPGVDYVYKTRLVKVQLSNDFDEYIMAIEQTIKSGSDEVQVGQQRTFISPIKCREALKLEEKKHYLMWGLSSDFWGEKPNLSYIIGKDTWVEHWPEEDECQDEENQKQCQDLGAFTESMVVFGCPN

B1: MTSP-1 protease domain I41G/F97S/F99L/C122S/G151N/Q175I/Q192T (enzyme)
chain: VVGGTDADEGEWPWQVSLHALGQGHGCGASLISPNWLVSAAHCYIDDRGFRYSDPTQWTAFLGLHDQSQRSAPGVQERRLKRIISHPFFNDSTLDYDIALLELEKPAEYSSMVRPISLPDASHVFPAGKAIWVTGWGHTQYGGTNALILQKGEIRVINQTTCENLLPQIITPRMMCVGFLSGGVDSCTGDSGGPLSSVEADGRIFQAGVVSWGDGCAQRNKPGVYTRLPLFRDWIKENTGV
The molecule B1 came in with an EC50 hC3 cleavage of 97.7 nM.

B2: MTSP-1 protease domain I41G/F99L/C122S/G151N/Q175I/Q192T (enzyme)
chain: B1 chain with S92F
Molecule B2 showed an EC50 hC3 cleavage of 51.6 nM.

B3: MTSP-1 protease domain I41D/F97R/F99L/C122S/G151Q/Q175R/Q192V/D217L (enzyme)
chain: B1 chain with G26D, S92R, N145Q, I169R, T188V, D214L
Molecule B3 yielded an EC50 hC3 cleavage of 88 nM.

B4: MTSP-1 protease domain I41E/F97V/F99L/C122S/G151N/Q175L/Q192S (enzyme)
chain: B1 chain with G26E, S92V, I169L, T188S
As for B4, the EC50 hC3 cleavage was 51.2 nM.

B5: MTSP-1 protease domain I41E/F99L/C122S/G151N/Q175L/Q192S/D217H (enzyme)
chain: B1 chain with G26E, S92F, I169L, T188S, D214H
In turn, B5 gave an EC50 hC3 cleavage of 27.1 nM.

B6: MTSP-1 protease domain F97R/F99L/C122S/G151Q/Q175R/Q192V/D217L (enzyme)
chain: B1 chain with G26I, S92R, N145Q, I169R, T188V, D214L
B6: the EC50 hC3 cleavage turned out to be 137 nM.

B7: MTSP-1 protease domain I41G/F99L/C122S/G151N/Q192T/D217T (enzyme)
chain: B1 chain with S92F, I169Q, D214T
With B7, the EC50 hC3 cleavage was determined as 44.7 nM.

B8: MTSP-1 protease domain F97Q/F99L/C122S/Q175N/Q192V/D217G (enzyme)
chain: B1 chain with G26I, S92Q, N145G, I169N, T188V, D214G
The molecule B8 gave an EC50 hC3 cleavage of 3670 nM.

B9: MTSP-1 protease domain I41G/F99L/C122S/Q175I/Q192T/D217T (enzyme)
chain: B1 chain with S92F, N145G, D214T
With B9, the EC50 hC3 cleavage was 81.8 nM.

B10: MTSP-1 protease domain I41E/F97A/F99M/C122S/G151N/Q175R/Q192S/D217E (enzyme)
chain: B1 chain with G26E, S92A, L94M, I169R, T188S, D214E
Consider B10, for which the EC50 hC3 cleavage is 485 nM.

B11: MTSP-1 protease domain I41D/F97T/F99L/C122S/G151N/Q175S/Q192T/D217A (enzyme)
chain: B1 chain with G26D, S92T, I169S, D214A
Molecule B11 displayed an EC50 hC3 cleavage of 70.9 nM.

B12: MTSP-1 protease domain I41E/F97V/F99L/C122S/Q175L/Q192S/D217H (enzyme)
chain: B1 chain with G26E, S92V, N145G, I169L, T188S, D214H
In the case of B12, the EC50 hC3 cleavage is 44.3 nM.

B13: MTSP-1 protease domain I41E/F97V/F99L/C122S/G151N/Q175L/Q192S/D217H (enzyme)
chain: B1 chain with G26E, S92V, I169L, T188S, D214H
In the case of B13, the EC50 hC3 cleavage was found to be 49.4 nM.

B14: MTSP-1 protease domain I41E/F97V/F99L/C122S/G151N/Q175L/D217H (enzyme)
chain: B1 chain with G26E, S92V, I169L, T188Q, D214H
Molecule B14 displayed an EC50 hC3 cleavage of 16.5 nM.

B15: MTSP-1 protease domain I41D/F99L/C122S/G151Q/Q175R/Q192V/D217L (enzyme)
chain: B1 chain with G26D, S92F, N145Q, I169R, T188V, D214L
Take B15: the EC50 hC3 cleavage amounted to 31.6 nM.

B16: MTSP-1 protease domain F97V/F99L/C122S/G151N/Q175L/Q192S/D217H (enzyme)
chain: B1 chain with G26I, S92V, I169L, T188S, D214H
B16 yielded an EC50 hC3 cleavage of 91.6 nM.

B17: MTSP-1 protease domain I41T/F97H/F99L/C122S/G151N/Q175H/Q192V/D217L (enzyme)
chain: B1 chain with G26T, S92H, I169H, T188V, D214L
Regarding B17, the EC50 hC3 cleavage stood at 131 nM.

B18: MTSP-1 protease domain I41E/F97R/F99L/C122S/G151Q/Q175G/Q192T/D217V (enzyme)
chain: B1 chain with G26E, S92R, N145Q, I169G, D214V
Consider B18, for which the EC50 hC3 cleavage was 13 nM.

B19: MTSP-1 protease domain I41E/F97V/F99L/C122S/G151N/Q192S/D217H (enzyme)
chain: B1 chain with G26E, S92V, I169Q, T188S, D214H
Consider B19, for which the EC50 hC3 cleavage turned out to be 42.2 nM.

B20: MTSP-1 protease domain I41R/F97T/F99L/C122S/G151N/Q175T/Q192T/D217I (enzyme)
chain: B1 chain with G26R, S92T, I169T, D214I
As for B20, the EC50 hC3 cleavage came to 159 nM.

B21: MTSP-1 Q38H/I41S/D60bT/F60eS/Y60gW/F97G/ins97aV/T98P/F99L/C122S/G151H/Q175L/Q192D (enzyme)
chain: VVGGTDADEGEWPWQVSLHALGHGHSCGASLISPNWLVSAAHCYIDTRGSRWSDPTQWTAFLGLHDQSQRSAPGVQERRLKRIISHPFFNDGVPLDYDIALLELEKPAEYSSMVRPISLPDASHVFPAGKAIWVTGWGHTQYGGTHALILQKGEIRVINQTTCENLLPQLITPRMMCVGFLSGGVDSCDGDSGGPLSSVEADGRIFQAGVVSWGDGCAQRNKPGVYTRLPLFRDWIKENTGV
In the case of B21, the EC50 of hC3 cleavage was 169 nM.

B22: MTSP-1 Q38H/I41S/D60bT/F60eS/Y60gW/D96K/ins97aV/T98P/F99L/C122S/G151H/Q175L/Q192D (enzyme)
chain: B21 chain with D91K, G92F
Regarding B22, the EC50 of hC3 cleavage came out at 12 nM.

B23: MTSP-1 protease domain F97R/ins97aT/T98V/C122S/Q175M/Q192T/D217S (enzyme)
chain: VVGGTDADEGEWPWQVSLHALGQGHICGASLISPNWLVSAAHCYIDDRGFRYSDPTQWTAFLGLHDQSQRSAPGVQERRLKRIISHPFFNDRTVFDYDIALLELEKPAEYSSMVRPISLPDASHVFPAGKAIWVTGWGHTQYGGTGALILQKGEIRVINQTTCENLLPQMITPRMMCVGFLSGGVDSCTGDSGGPLSSVEADGRIFQAGVVSWGSGCAQRNKPGVYTRLPLFRDWIKENTGV
For the molecule B23, the EC50 hC3 cleavage worked out at 42.2 nM.

B24: MTSP-1 protease domain F97V/ins97aH/T98R/F99L/C122S/Q175R/Q192G/D217S (enzyme)
chain: B23 chain with R92V, T93H, V94R, F95L, M170R, T189G
B24 came in with an EC50 hC3 cleavage of 905 nM.

B25: MTSP-1 protease domain F97S/ins97aN/T98G/F99M/C122S/Q175T/Q192T/D217S (enzyme)
chain: B23 chain with R92S, T93N, V94G, F95M, M170T
B25 came in with an EC50 hC3 cleavage of 2400 nM.

B26: MTSP-1 protease domain F97L/ins97aM/T98N/F99L/C122S/Q175T/Q192T/D217S (enzyme)
chain: B23 chain with R92L, T93M, V94N, F95L, M170T
As for B26, the EC50 hC3 cleavage amounted to 256 nM.
